From publication PMC7385628, “Molecular determinants for dsDNA translocation by the transcription-repair coupling and evolvability factor Mfd” come the findings set out here.

The term Kd denotes the free concentration of one partner at which half of the binding sites on the other are occupied at equilibrium, for simple one-to-one binding. High values mean lower affinity, low ones higher affinity.

For data set [1], the target named is T1, Mfd wild type (Escherichia coli, UniProt P30958 1-1148). Briefly: fluorescence anisotropy. The conditions noted are these: 10 nM labeled DNA, 2 mM nucleotide (ADP-AlFx from ADP, 10 mM NaF, 2 mM AlCl3), buffer, pH and temperature not in the material. ….
T1 sequence (P30958 whole entry): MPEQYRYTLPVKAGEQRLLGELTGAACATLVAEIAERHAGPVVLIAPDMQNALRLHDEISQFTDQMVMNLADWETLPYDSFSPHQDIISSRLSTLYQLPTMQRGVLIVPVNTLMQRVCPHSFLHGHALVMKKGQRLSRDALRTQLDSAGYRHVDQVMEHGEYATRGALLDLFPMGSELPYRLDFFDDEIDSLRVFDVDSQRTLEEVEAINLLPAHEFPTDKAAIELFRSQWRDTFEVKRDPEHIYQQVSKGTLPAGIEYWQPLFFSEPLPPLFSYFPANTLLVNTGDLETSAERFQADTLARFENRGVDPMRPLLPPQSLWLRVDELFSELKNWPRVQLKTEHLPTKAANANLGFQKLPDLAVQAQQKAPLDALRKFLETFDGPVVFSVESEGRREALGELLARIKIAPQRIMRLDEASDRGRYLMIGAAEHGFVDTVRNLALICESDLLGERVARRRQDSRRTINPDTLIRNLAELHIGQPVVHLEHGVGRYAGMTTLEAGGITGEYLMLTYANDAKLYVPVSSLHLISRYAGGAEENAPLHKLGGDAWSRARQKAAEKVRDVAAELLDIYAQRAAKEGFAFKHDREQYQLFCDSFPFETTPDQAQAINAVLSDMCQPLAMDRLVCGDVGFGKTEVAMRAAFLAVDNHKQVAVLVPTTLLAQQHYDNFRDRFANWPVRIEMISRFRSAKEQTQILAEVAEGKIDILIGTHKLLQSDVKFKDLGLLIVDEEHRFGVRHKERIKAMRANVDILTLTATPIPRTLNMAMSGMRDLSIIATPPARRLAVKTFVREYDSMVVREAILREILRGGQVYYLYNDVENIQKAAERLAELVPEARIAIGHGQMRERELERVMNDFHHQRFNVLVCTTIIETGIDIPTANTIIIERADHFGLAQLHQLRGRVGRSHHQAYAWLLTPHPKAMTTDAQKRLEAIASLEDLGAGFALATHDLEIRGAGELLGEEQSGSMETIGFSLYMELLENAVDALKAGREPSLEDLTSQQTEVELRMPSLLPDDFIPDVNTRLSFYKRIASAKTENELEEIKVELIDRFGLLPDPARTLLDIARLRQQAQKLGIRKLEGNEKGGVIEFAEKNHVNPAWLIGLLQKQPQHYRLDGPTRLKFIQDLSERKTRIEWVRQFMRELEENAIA
Data set [2] concerns Mfd D7-AAA;H842A (Escherichia coli). Briefly: fluorescence anisotropy. The conditions noted are these: 10 nM labeled DNA, 2 mM nucleotide (ADP-AlFx from ADP, 10 mM NaF, 2 mM AlCl3), buffer, pH and temperature not in the material. …. (In general: In fluorescence polarisation assays a small probe gives low polarisation when free and higher when bound to something large.)
For data set [3], the target named is T1, Mfd wild type. The experiment in a line: cryo-EM structure (5.5 A); 2 mM ADP, 10 mM NaF, 1 mM AlCl3, Mg2+; Fluorescence anisotropy, 10 nM labeled DNA, 2 mM nucleotide (ADP-AlFx from ADP, 10 mM NaF, 2 mM AlCl3); buffer, pH and temperature not in the material. Cryo-EM: Mfd in 20 mM Tris-HCl pH 8, 100 mM NaCl, 20 mM MgCl2, 2 mM TCEP. As to conditions: protein: recombinant; tags: N-terminal His tag, cleaved with PreScission; blunt.

In the case of HEX-labeled 40mer dsDNA, the dissociation constant Kd in data set [1] (2 mM ADP-AlFx) amounted to 24 nM; in data set [1] (2 mM ATPgS), 151 nM; in data set [2] it was 127 nM; in data set [2] (2 mM ATPgS), 927 nM.

B1: 21mer dsDNA (cryo-EM) (dsDNA)
DNA 1: ATAGGATACTTACAGCCATCG
DNA 2: CGATGGCTGTAAGTATCCTAT
For B1, the binding result in data set [3] was “binds”.
